In patent US20200331965A1 (EMORY UNIVERSITY, published 2020):

Experiments:
[1] = molecular target: zonula occludens 1 (rat alveolar epithelial cells) (rat); experiment: STORM co-localization, rat AECs transduced with YFP-claudin-5
[2] = molecular target: zonula occludens 1 (rat alveolar epithelial cells) (rat); experiment: STORM co-localization, untransduced rat AECs
[3] = molecular target: zonula occludens 1 (rat alveolar epithelial cells) (rat); experiment: STORM co-localization, rat AECs without YFP-claudin-5
[4] = molecular target: T1, zonula occludens 1 (rat alveolar epithelial cells) (rat, UniProt A0A0G2K2P5 1-1765); experiment: STORM co-localization in rat AECs (FIG. 4C)
T1 construct: Endogenous cytoplasmic protein within primary rat AECs (not a surface protein); also called ZO-1
T1 sequence (A0A0G2K2P5 whole entry): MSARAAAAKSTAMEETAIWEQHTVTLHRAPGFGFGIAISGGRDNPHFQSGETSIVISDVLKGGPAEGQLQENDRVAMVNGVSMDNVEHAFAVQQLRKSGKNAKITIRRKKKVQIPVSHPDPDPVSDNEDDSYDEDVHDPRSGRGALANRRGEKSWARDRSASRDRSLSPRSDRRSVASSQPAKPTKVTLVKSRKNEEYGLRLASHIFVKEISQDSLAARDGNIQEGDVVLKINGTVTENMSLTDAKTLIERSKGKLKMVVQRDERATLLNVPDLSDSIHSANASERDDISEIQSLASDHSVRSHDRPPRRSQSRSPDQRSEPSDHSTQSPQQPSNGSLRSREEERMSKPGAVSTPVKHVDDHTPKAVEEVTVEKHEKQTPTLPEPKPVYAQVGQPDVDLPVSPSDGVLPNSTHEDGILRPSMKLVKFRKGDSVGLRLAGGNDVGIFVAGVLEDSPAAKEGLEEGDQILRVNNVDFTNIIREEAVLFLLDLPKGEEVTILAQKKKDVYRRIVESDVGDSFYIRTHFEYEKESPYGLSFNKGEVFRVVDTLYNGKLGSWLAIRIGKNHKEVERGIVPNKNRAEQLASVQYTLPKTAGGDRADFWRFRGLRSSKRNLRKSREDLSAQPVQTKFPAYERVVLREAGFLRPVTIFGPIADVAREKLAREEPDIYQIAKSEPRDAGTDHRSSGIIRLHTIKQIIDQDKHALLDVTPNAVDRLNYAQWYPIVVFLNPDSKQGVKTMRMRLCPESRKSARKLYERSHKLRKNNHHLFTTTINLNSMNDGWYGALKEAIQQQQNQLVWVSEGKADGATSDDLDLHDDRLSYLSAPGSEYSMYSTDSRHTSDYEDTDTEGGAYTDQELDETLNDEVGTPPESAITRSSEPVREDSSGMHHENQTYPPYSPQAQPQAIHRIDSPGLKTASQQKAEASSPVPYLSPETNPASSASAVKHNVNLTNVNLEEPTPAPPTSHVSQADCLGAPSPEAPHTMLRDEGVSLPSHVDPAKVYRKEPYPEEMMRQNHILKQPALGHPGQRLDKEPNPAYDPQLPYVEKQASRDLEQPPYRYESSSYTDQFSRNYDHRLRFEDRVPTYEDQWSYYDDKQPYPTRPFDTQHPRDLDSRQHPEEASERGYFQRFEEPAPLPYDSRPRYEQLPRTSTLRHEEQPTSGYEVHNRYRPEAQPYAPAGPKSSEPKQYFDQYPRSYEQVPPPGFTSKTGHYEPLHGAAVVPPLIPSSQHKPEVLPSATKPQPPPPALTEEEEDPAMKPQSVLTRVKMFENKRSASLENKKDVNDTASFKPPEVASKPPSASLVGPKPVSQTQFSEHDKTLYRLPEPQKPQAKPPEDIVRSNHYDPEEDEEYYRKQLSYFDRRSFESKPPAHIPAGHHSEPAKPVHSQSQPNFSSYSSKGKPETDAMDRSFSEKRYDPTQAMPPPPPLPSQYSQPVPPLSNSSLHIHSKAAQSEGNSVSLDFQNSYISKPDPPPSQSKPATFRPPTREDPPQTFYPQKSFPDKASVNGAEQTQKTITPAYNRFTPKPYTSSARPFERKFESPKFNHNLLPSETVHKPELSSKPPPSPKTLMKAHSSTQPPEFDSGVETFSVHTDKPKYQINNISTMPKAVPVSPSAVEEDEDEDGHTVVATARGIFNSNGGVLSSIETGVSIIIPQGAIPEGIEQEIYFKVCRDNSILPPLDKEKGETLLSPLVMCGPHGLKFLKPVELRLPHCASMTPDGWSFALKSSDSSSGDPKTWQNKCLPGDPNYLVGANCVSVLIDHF

Sequence of zonula occludens 1 (rat alveolar epithelial cells) (rat) (A0A0G2 entry or part of it limits assumed): as the sequence (A0A0G2K2P5 whole entry) above

| co-localization [1] | co-localization index [2] | co-localization [3] | binding result [4] | Molecule |
| --- | --- | --- | --- | --- |
| 16% | 30.5% | 31% | – | native claudin-18 (rat alveolar epithelial cells) (from UniProt Q5I0E5 1-261) |
| – | – | – | binds | native claudin-5 (rat alveolar epithelial cells) (other, UniProt Q9JKD6 1-218, looked up, whole, on cells; Endogenous protein in primary rat AECs from control-fed or alcohol-fed rats; detected with antibodies (co-immunopurification, STORM, PLA); also called Cldn-5) MGSAALEILGLVLCLVGWVGLILACGLPMWQVTAFLDHNIVTAQTTWKGLWMSCVVQSTGHMQCKVYESVLALSAEVQAARALTVGAVLLALVALFVTLTGAQCTTCVAPGPVKARVALTGGALYALCGLLALVPLCWFANIVVREFYDPTVPVSQKYELGAALYIGWAASALLMCGGGLVCCGAWVCTGRPEFSFPVKYSAPRRTTANGDYDKKNYV |
